Tests used:
ALPL = target: T1, ALPL (Homo sapiens, UniProt P05186); experiment: Inhibition of TTM-002 transduction by small molecule ALPL inhibitors in HeLa cells expressing ALPL; format: cell-based; set-up: endogenous in cells; host or cells: HeLa
T1 sequence (P05186 18-501): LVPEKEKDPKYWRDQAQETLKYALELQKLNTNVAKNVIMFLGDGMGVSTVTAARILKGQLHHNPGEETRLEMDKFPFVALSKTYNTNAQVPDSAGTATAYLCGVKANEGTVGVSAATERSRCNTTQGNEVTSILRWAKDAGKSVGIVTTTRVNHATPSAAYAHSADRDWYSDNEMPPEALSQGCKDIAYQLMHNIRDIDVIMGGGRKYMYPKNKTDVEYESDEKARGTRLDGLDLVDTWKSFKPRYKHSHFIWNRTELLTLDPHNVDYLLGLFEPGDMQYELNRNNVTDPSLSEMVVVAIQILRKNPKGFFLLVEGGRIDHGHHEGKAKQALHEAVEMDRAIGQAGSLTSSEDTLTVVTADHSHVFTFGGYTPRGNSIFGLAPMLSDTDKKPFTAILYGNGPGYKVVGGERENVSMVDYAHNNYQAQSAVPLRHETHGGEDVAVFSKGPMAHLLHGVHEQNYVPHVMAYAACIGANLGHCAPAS
Experimental: An inhibitor of ALPL was also investigated to determine if blocking the ALPL receptor would reduce cellular transduction of the TTM-002 capsid variant. […] The inhibitor or a vehicle control (equivalent amount of DMSO) was added to HeLa cells expressing ALPL 1 hour prior to transduction with an AAV viral particle comprising the TTM-002 capsid variant or an AAV9 control capsid and expressing a GFP-luciferase transgene under the control of a CAG promoter. The cells were then transduced with 1E4 VG/cell of an AAV particle comprising the TTM-002 capsid variant or an AAV9 control capsid. Media and virus were removed 4 hours post transduction and luciferase activity was measured (RLU) 24 hours post transduction.

[1] = target: T2, ALPL with a deletion of the ER localization signal (ALPL transcript variant 2, NM_001127501) (human, UniProt P05186 56-501); experiment: cell-based or functional assay
T2 sequence: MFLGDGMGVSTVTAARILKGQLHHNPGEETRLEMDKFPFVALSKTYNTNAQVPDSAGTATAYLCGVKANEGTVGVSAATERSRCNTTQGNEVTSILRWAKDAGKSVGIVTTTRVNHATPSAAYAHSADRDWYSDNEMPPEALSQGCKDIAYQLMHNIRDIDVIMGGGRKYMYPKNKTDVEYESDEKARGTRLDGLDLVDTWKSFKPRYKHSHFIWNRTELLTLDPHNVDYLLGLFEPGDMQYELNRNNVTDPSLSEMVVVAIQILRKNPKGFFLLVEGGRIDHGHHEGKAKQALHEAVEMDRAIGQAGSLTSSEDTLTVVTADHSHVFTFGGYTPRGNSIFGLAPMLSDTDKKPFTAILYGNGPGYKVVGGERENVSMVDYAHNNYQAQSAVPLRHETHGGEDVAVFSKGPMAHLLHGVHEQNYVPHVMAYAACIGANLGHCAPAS

[2] = target: T3, human ALPL expressed on cells (alkaline phosphatase tissue-nonspecific isozyme, NM_000478.4) (human, UniProt P05186 18-501); experiment: cell-based or functional assay
T3 sequence: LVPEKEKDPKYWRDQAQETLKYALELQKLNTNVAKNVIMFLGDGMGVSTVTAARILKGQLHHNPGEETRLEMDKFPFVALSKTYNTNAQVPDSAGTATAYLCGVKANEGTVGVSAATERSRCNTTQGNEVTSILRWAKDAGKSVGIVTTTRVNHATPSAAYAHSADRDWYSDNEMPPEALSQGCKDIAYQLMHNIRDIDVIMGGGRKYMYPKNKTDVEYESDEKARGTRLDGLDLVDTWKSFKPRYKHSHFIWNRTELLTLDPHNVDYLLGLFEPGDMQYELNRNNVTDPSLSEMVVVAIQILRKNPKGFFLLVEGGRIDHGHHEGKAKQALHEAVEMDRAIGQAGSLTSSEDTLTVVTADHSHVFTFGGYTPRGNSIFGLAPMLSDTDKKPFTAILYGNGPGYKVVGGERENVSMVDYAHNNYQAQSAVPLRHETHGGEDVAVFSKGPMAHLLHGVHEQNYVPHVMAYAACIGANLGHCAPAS

[3] = target: T4, AAVR (universal AAV entry factor) expressed on HEK 293T cells (UniProt Q8IZA0 1-1049); experiment: binding/internalization: AAV incubated 2 or 3 h with AAVR transfected HEK 293T cells, washed, viral genomes quantified
T4 construct: whole, on cells; also called AAVR positive control
T4 sequence: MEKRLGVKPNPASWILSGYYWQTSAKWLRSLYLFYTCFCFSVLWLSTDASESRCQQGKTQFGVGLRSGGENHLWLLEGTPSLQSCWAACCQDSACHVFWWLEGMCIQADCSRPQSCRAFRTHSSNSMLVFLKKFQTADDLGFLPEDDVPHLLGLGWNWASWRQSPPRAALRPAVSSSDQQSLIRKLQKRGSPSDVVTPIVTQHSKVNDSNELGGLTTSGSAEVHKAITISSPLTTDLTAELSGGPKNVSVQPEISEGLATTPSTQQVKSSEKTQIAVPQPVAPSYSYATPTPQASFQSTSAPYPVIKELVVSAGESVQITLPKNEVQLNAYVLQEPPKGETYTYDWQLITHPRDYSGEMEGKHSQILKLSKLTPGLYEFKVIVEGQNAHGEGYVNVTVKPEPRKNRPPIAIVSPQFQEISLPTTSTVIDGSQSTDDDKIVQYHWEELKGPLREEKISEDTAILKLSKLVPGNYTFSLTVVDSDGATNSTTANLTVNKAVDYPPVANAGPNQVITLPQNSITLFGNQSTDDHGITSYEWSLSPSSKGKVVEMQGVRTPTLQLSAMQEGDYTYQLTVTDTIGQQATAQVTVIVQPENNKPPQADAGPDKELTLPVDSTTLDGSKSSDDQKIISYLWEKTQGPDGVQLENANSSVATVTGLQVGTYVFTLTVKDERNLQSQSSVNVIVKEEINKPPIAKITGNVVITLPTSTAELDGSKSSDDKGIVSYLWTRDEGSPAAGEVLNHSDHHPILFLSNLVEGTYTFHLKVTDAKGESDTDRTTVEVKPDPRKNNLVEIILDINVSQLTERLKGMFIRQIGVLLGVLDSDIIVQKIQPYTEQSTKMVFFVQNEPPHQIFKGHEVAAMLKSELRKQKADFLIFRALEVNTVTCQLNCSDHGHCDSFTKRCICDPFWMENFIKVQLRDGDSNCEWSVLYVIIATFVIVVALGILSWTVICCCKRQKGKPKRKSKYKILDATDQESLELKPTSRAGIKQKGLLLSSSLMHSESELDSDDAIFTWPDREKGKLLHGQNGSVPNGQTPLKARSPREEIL

[4] = target: T3, human ALPL expressed on cells (alkaline …); experiment: binding/internalization: AAV incubated 2 or 3 h with ALPL transfected HEK 293T cells, washed, viral genomes quantified
[5] = target: T3, human ALPL expressed on cells (alkaline …); experiment: cell-based or functional assay; remark: listed apart in the source
[6] = target: T5, murine ALPL ortholog expressed on HEK 293T cells (NM_001287172.1) (mouse, UniProt P09242 18-501); experiment: cell-based or functional assay
T5 sequence: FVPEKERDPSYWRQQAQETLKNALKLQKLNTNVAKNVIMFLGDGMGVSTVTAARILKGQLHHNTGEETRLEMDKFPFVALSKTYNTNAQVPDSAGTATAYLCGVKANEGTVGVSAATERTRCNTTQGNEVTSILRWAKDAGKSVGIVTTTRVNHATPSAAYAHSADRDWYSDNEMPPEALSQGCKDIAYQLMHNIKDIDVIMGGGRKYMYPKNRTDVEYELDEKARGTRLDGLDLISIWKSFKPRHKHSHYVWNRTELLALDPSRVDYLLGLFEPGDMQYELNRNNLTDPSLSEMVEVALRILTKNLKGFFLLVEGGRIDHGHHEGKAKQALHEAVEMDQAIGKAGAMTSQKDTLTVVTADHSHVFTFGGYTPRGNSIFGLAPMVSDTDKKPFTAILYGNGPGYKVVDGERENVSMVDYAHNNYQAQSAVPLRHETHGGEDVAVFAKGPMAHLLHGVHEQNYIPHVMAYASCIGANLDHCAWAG

[7] = target: T3, human ALPL expressed on cells (alkaline …); experiment: cell-based or functional assay; remark: listed apart in the source

Molecule	IC50 (ALPL) [nM]	effect on TTM-002 transduction (ALPL)	fold change in luciferase activity relative to the pCMV6 control cells (cells transfected with ALPL comprising a deletion of the ER localization signal) [1] [fold]	fold change in luciferase activity relative to the pCMV6 control cells (cells transfected with ALPL) [2] [fold]	fold change in viral gene expression (2^-ΔΔCT) relative to pCMV6 transfected cells [3] [fold]	fold change in viral gene expression (2^-ΔΔCT) relative to pCMV6 transfected cells [4] [fold]	luciferase activity, fold change relative to pCMV6 transfected HEK 293T cells (ALPL transfected cells) [5] [fold]	fold change in luciferase activity relative to the pCMV6 control cells (cells transfected with murine ALPL protein) [6] [fold]	fold change in luciferase activity relative to the pCMV6 control cells (cells transfected with human ALPL protein) [7] [fold]
COc1ccc(Cl)cc1S(=O)(=O)Nc1cncc(C(N)=O)c1 [SBI-425, 5-((5-chloro-2-methoxyphenyl)sulfonamido) nicotinamide]	0.34	significantly inhibited TTM-002 transduction							
TTM-001 capsid variant (AAV particle comprising the TTM-001 AAV9 capsid variant) (other) chain 1: MAADGYLPDWLEDNLSEGIREWWALKPGAPQPKANQQHQDNARGLVLPGYKYLGPGNGLDKGEPVNAADAAALEHDKAYDQQLKAGDNPYLKYNHADAEFQERLKEDTSFGGNLGRAVFQAKKRLLEPLGLVEEAAKTAPGKKRPVEQSPQEPDSSAGIGKSGAQPAKKRLNFGQTGDTESVPDPQPIGEPPAAPSGVGSLTMASGGGAPVADNNEGADGVGSSSGNWHCDSQWLGDRVITTSTRTWALPTYNNHLYKQISNSTSGGSSNDNAYFGYSTPWGYFDFNRFHCHFSPRDWQRLINNNWGFRPKRLNFKLFNIQVKEVTDNNGVKTIANNLTSTVQVFTDSDYQLPYVLGSAHEGCLPPFPADVFMIPQYGYLTLNDGSQAVGRSSFYCLEYFPSQMLRTGNNFQFSYEFENVPFHSSYAHSQSLDRLMNPLIDQYLYYLSKTINGSGSPHSKAQNQQTLKFSVAGPSNMAVQGRNYIPGPSYRQQRVSTTVTQNNNSEFAWPGASSWALNGRNSLMNPGPAMASHKEGEDRFFPLSGSLIFGKQGTGRDNVDADKVMITNEEEIKTTNPVATESYGQVATNHQSAQAQAQTGWVQNQGILPGMVWQDRDVYLQGPIWAKIPHTDGNFHPSPLMGGFGMKHPPPQILIKNTPVPADPPTAFNKDKLNSFITQYSTGQVSVEIEWELQKENSKRWNPEIQYTSNYYKSNNVEFAVNTEGVYSEPRPIGTRYLTRNL chain 2: TAPGKKRPVEQSPQEPDSSAGIGKSGAQPAKKRLNFGQTGDTESVPDPQPIGEPPAAPSGVGSLTMASGGGAPVADNNEGADGVGSSSGNWHCDSQWLGDRVITTSTRTWALPTYNNHLYKQISNSTSGGSSNDNAYFGYSTPWGYFDFNRFHCHFSPRDWQRLINNNWGFRPKRLNFKLFNIQVKEVTDNNGVKTIANNLTSTVQVFTDSDYQLPYVLGSAHEGCLPPFPADVFMIPQYGYLTLNDGSQAVGRSSFYCLEYFPSQMLRTGNNFQFSYEFENVPFHSSYAHSQSLDRLMNPLIDQYLYYLSKTINGSGSPHSKAQNQQTLKFSVAGPSNMAVQGRNYIPGPSYRQQRVSTTVTQNNNSEFAWPGASSWALNGRNSLMNPGPAMASHKEGEDRFFPLSGSLIFGKQGTGRDNVDADKVMITNEEEIKTTNPVATESYGQVATNHQSAQAQAQTGWVQNQGILPGMVWQDRDVYLQGPIWAKIPHTDGNFHPSPLMGGFGMKHPPPQILIKNTPVPADPPTAFNKDKLNSFITQYSTGQVSVEIEWELQKENSKRWNPEIQYTSNYYKSNNVEFAVNTEGVYSEPRPIGTRYLTRNL chain 3: MASGGGAPVADNNEGADGVGSSSGNWHCDSQWLGDRVITTSTRTWALPTYNNHLYKQISNSTSGGSSNDNAYFGYSTPWGYFDFNRFHCHFSPRDWQRLINNNWGFRPKRLNFKLFNIQVKEVTDNNGVKTIANNLTSTVQVFTDSDYQLPYVLGSAHEGCLPPFPADVFMIPQYGYLTLNDGSQAVGRSSFYCLEYFPSQMLRTGNNFQFSYEFENVPFHSSYAHSQSLDRLMNPLIDQYLYYLSKTINGSGSPHSKAQNQQTLKFSVAGPSNMAVQGRNYIPGPSYRQQRVSTTVTQNNNSEFAWPGASSWALNGRNSLMNPGPAMASHKEGEDRFFPLSGSLIFGKQGTGRDNVDADKVMITNEEEIKTTNPVATESYGQVATNHQSAQAQAQTGWVQNQGILPGMVWQDRDVYLQGPIWAKIPHTDGNFHPSPLMGGFGMKHPPPQILIKNTPVPADPPTAFNKDKLNSFITQYSTGQVSVEIEWELQKENSKRWNPEIQYTSNYYKSNNVEFAVNTEGVYSEPRPIGTRYLTRNL			2	22	6.64	3.16	35	18	22
